Experimental data reported in paper PMC6449345.

What was measured:
[1] = biological target: S. cerevisiae RNA polymerase II (Pol II), stalled elongation complex on DNA with nascent RNA (S. cerevisiae) (UniProt P16370)
[2] = biological target: S. cerevisiae RNA polymerase II (Pol II), stalled elongation complex on DNA with nascent RNA (S. cerevisiae) (UniProt P16370); remark: listed apart in the source

Chain of UniProt P16370 (P16370 whole entry, looked up, one chain of several): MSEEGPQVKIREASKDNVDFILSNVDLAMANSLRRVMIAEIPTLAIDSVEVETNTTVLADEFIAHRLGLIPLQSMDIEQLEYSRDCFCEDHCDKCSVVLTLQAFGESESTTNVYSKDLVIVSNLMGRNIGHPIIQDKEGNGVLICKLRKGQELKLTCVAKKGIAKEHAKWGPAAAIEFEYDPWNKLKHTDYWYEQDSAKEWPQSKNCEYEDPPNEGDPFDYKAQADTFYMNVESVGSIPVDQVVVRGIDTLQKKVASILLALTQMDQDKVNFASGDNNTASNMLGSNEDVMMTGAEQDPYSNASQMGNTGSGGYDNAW

- k−1, rate of unbinding of Sen1 HD from the stalled elongation complex; the same fit [1]: 0.0719 s⁻¹
- Km of formation of the intermediate (Sen1·sEC)'; Michaelis-Menten fit of t1, the lifetime before the intermediate forms [2]: 0.096 nM
- Km of removal of stalled Pol II by Sen1 HD (10-100 pM); Michaelis-Menten fit of the mean total lifetime (t total) of the transcription bubble; magnetic-trap DNA supercoiling assay, 1 mM ATP, 28 °C [2]: 70 pM
- Km of removal of stalled Pol II by Sen1 HD; Michaelis-Menten fit of t total, corrected for the stalling rate ks [2]: 0.083 nM
- Km of removal of stalled Pol II by Sen1 HD; single-molecule Michaelis-Menten global fit of t total distributions (from k1, k-1 and kCAT) [2]: 0.041 nM
- k1, rate of binding of Sen1 HD to the stalled elongation complex; single-molecule Michaelis-Menten global fit of t total distributions, kCAT constrained [2]: 2.18e+09 M⁻¹ s⁻¹
- k−1, rate of unbinding of Sen1 HD from the stalled elongation complex; single-molecule Michaelis-Menten global fit of t total distributions, kCAT constrained [2]: 0.0725 s⁻¹
B1: Sen1 helicase domain (Sen1 HD, 1095–1904) (domain or fragment)
chain: AELAKQELEHMRKRLNVDMNPLYEIILQWDYTRNSEYPDDEPIGNYSDVKDFFNSPADYQKVMKPLLLLESWQGLCSSRDREDYKPFSIIVGNRTAVSDFYDVYASVAKQVIQDCGISESDLIVMAYLPDFRPDKRLSSDDFKKAQHTCLAKVRTLKNTKGGNVDVTLRIHRNHSFSKFLTLRSEIYCVKVMQMTTIEREYSTLEGLEYYDLVGQILQAKPSPPVNVDAAEIETVKKSYKLNTSQAEAIVNSVSKEGFSLIQGPPGTGKTKTILGIIGYFLSTKNASSSNVIKVPLEKNSSNTEQLLKKQKILICAPSNAAVDEICLRLKSGVYDKQGHQFKPQLVRVGRSDVVNVAIKDLTLEELVDKRIGERNYEIRTDPELERKFNNAVTKRRELRGKLDSESGNPESPMSTEDISKLQLKIRELSKIINELGRDRDEMREKNSVNYRNRDLDRRNAQAHILAVSDIICSTLSGSAHDVLATMGIKFDTVIIDEACQCTELSSIIPLRYGGKRCIMVGDPNQLPPTVLSGAASNFKYNQSLFVRMEKNSSPYLLDVQYRMHPSISKFPSSEFYQGRLKDGPGMDILNKRPWHQLEPLAPYKFFDIISGRQEQNAKTMSYTNMEEIRVAIELVDYLFRKFDNKIDFTGKIGIISPYREQMQKMRKEFARYFGGMINKSIDFNTIDGFQGQEKEIILISCVRADDTKSSVGFLKDFRRMNVALTRAKTSIWVLGHQRSLAKSKLWRDLIEDAKDRSCLAYACSGFLDPRNNRAQSILRKFNVPVPSEQEDDYKLPMEYITQGPDEVKSN
